Where two headings read alike, the source gives them in different places.
B1: MAb4-YTE (antibody, human IgG1, kappa)
heavy: QVQLVQSGAEVKKPGSSVKVSCKASGYAFSSYWMNWVRQAPGQGLEWIGQIYPGDDDTNYNAKFQGRVTITVDKSTTTAYMELSSLRSEDTAVYFCAGSLMVTTGAPFDYWGQGTTVTVSSASTKGPSVFPLAPSSKSTSGGTAALGCLVKDYFPEPVTVSWNSGALTSGVHTFPAVLQSSGLYSLSSVVTVPSSSLGTQTYICNVNHKPSNTKVDKRVEPKSCDKTHTCPPCPAPELLGGPSVFLFPPKPKDTLYITREPEVTCVVVDVSHEDPEVKFNWYVDGVEVHNAKTKPREEQYNSTYRVVSVLTVLHQDWLNGKEYKCKVSNKALPAPIEKTISKAKGQPREPQVYTLPPSREEMTKNQVSLTCLVKGFYPSDIAVEWESNGQPENNYKTTPPVLDSDGSFFLYSKLTVDKSRWQQGNVFSCSVMHEALHNHYTQKSLSLSPG
light: DIQMTQSPSSLSASVGDRVTITCKASQDVGIAVAWYQQKPGKAPKFLIYYASHRGWGVPDRFSGSGSGTDFTLTISSLQPEDFATYFCQQYRSYPLTFGQGTKLEIKRTVAAPSVFIFPPSDEQLKSGTASVVCLLNNFYPREAKVQWKVDNALQSGNSQESVTEQDSKDSTYSLSSTLTLSKADYEKHKVYACEVTHQGLSSPVTKSFNRGEC
notes: also called Mab-YTE
B2: MAb4-LS (antibody, human IgG1, kappa)
heavy: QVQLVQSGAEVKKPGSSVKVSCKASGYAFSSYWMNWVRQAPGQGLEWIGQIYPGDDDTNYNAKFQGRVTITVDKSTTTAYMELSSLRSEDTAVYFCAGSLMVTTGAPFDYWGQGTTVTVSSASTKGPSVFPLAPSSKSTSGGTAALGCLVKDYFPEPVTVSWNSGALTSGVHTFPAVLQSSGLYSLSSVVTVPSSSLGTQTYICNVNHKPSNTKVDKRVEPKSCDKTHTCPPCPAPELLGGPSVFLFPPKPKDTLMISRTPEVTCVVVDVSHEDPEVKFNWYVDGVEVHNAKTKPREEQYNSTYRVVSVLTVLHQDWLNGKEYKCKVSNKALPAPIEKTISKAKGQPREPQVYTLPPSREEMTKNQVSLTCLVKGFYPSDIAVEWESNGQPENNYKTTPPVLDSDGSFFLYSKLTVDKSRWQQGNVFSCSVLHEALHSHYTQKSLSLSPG
light: B1 light
notes: Human IgG1 kappa
B3: DX-2930 (antibody)
chain 1: not shown
chain 2: DIQMTQSPSTLSASVGDRVTITCRASQSISSWLAWYQQKPGKAPKLLIYKASTLESGVPSRFSGSGSGTEFTLTISSLQPDDFATYYCQQYNTYWTFGQGTKVEIKRTVAAPSVFIFPPSDEQLKSGTASVVCLLNNFYPREAKVQWKVDNALQSGNSQESVTEQDSKDSTYSLSSTLTLSKADYEKHKVYACEVTHQGLSSPVTKSFNRGEC
B4: MAb1 (antibody, V domains shown)
VH: QVQLQQSGAELVKPGASVKISCKASGYAFSSYWMNWVKQRPGEGLEWIGQIYPGDDDTNYNGKFKGKATLTVDKSSTTAYMQLSSLTSEDSAVYFCAGSLMVTTGAPFDYWGQGTTLTVSS
VL: DIVMTQSHKFMSTSVGDRVSITCKASQDVGIAVAWYQQKPGQSPKFLIYWASTRHTGVPDRFTGSGSGTDFTLTIRNVQSEDLSDYFCQQYRSYPLTFGSGTKLELK
B5: MAb4 (antibody, human IgG1, kappa)
heavy: not shown
light: B1 light
notes: Full length human IgG1 kappa; also called unmodified MAb4; parental MAb4

Experiments:
human plasma kallikrein [1] = biological target: T1, human plasma kallikrein (human, UniProt P03952 20-390; P03952 391-638); experiment: SPR, pH 6.0, 37° C.; pH 6.0, 37° C.
T1 construct: Active enzyme (Enzyme Research Labs is named for the immunogen); also called pkal; pKal

[2] = biological target: cynomolgus monkey plasma kallikrein (cynomolgus monkey, UniProt P03952 20-638 (human entry), limits assumed); experiment: cell-based or functional assay
human plasma kallikrein [3] = biological target: T1, human plasma kallikrein; experiment: cell-based or functional assay
rabbit plasma kallikrein = rabbit plasma kallikrein (rabbit); experiment: cell-based or functional assay
rat plasma kallikrein = rat plasma kallikrein (rat, UniProt P14272 20-638, limits assumed); experiment: cell-based or functional assay
[4] = biological target: T2, human FcRn (Sino Biological, Cat. No. CT009-H08H) (human, UniProt P55899 24-297; P61769 21-119); experiment: SPR, Biacore T200, human FcRn on the chip, pH 6.0
T2 construct: Coupled to the Biacore chip; also called hFcRn

human plasma kallikrein [5] = biological target: T1, human plasma kallikrein; experiment: SPR, 37 C, 50 mM HEPES, 150 mM NaCl, 0.1 mM Ca++, 1 mg/ml BSA, 0.02% tween-20, pH 6.0
human prekallikrein [6] = biological target: T3, human prekallikrein (human, UniProt P03952 20-638); experiment: as above
T3 construct: Zymogen form

human prekallikrein [7] = biological target: T3, human prekallikrein; experiment: SPR, 37 C, 50 mM HEPES, 150 mM NaCl, 1.3 mM Ca++, 1 mg/ml BSA, 0.02% tween-20, pH 7.4
human plasma kallikrein [8] = biological target: T1, human plasma kallikrein; experiment: SPR, pH 7.4, 37° C.
human plasma kallikrein [9] = biological target: T1, human plasma kallikrein; experiment: cell-based or functional assay; remark: listed apart in the source
human plasma kallikrein [10] = biological target: T1, human plasma kallikrein; experiment: cell-based or functional assay; remark: listed apart in the source
human plasma kallikrein [11] = biological target: T1, human plasma kallikrein; experiment: SPR, 37° C.; reference: human prekallikrein
human prekallikrein [12] = biological target: T3, human prekallikrein; experiment: SPR, 37 C, 50 mM HEPES, 150 mM NaCl, 0.1 mM Ca++, 1 mg/ml BSA, 0.02% tween-20, pH 6.0 (this table has no pH labels; lower row taken as pH 6.0 as in the labelled table beside it)
human prekallikrein [13] = biological target: T3, human prekallikrein; experiment: SPR, 37 C, 50 mM HEPES, 150 mM NaCl, 1.3 mM Ca++, 1 mg/ml BSA, 0.02% tween-20, pH 7.4 (this table has no pH labels; upper row taken as pH 7.4 as in the labelled table beside it)
[14] = biological target: T2, human FcRn (Sino Biological, Cat. No. …)
human plasma kallikrein [15] = biological target: T1, human plasma kallikrein; experiment: SPR, pH 7.4, 37° C.; pH 7.4, 37° C.
human plasma kallikrein [16] = biological target: T1, human plasma kallikrein; experiment: SPR, 37 C, 50 mM HEPES, 150 mM NaCl, 0.1 mM Ca++, 1 mg/ml BSA, 0.02% tween-20, pH 6.0 (this table has no pH labels; lower row taken as pH 6.0 as in the labelled tables beside it)
human plasma kallikrein [17] = biological target: T1, human plasma kallikrein; experiment: SPR, 37 C, 50 mM HEPES, 150 mM NaCl, 1.3 mM Ca++, 1 mg/ml BSA, 0.02% tween-20, pH 7.4 (this table has no pH labels; upper row taken as pH 7.4 as in the labelled tables beside it)
[18] = biological target: trypsin, human pancrease (Cat #16-19-032000, Athens Research and Technology Inc) (human); experiment: cell-based or functional assay
human plasma kallikrein [19] = biological target: T1, human plasma kallikrein; experiment: cell-based or functional assay; remark: listed apart in the source
human plasma kallikrein [20] = biological target: T1, human plasma kallikrein; experiment: SPR, 37° C., pH 6 against pH 7.4
human plasma kallikrein [21] = biological target: T1, human plasma kallikrein; experiment: SPR, pH 6.0, 37° C.
human plasma kallikrein [22] = biological target: T1, human plasma kallikrein; experiment: cell-based or functional assay; remark: listed apart in the source
[23] = biological target: T2, human FcRn (Sino Biological, Cat. No. …); experiment: SPR, Biacore T200, human FcRn on the chip, pH 6.0; pH 6.0; hFcRn on the chip

T2 sequence (P55899 24-297 limits assumed, chain 1 of 2): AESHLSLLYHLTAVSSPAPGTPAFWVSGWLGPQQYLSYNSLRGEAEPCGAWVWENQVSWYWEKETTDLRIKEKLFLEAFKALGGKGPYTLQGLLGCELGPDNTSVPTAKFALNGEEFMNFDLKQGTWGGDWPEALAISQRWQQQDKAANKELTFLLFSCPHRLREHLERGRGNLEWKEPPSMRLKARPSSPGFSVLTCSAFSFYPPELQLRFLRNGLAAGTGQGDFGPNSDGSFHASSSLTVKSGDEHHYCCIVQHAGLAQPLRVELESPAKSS
T2 sequence (P61769 21-119 limits assumed, chain 2 of 2): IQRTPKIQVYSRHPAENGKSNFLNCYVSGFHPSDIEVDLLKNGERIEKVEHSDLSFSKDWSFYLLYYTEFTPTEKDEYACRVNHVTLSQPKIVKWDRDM
T1 sequence (P03952 20-390 S143N limits assumed, chain 1 of 2): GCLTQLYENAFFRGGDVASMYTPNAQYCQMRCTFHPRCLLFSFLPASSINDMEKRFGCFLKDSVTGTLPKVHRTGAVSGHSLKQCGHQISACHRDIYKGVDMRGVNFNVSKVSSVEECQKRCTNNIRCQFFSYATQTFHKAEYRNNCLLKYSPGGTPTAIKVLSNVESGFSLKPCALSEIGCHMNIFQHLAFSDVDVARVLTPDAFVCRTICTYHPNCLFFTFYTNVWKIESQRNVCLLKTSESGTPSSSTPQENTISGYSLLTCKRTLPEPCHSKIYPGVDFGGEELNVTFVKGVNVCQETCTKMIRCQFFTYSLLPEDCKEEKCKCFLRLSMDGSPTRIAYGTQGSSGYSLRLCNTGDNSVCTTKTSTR
T1 sequence (P03952 391-638 limits assumed, chain 2 of 2): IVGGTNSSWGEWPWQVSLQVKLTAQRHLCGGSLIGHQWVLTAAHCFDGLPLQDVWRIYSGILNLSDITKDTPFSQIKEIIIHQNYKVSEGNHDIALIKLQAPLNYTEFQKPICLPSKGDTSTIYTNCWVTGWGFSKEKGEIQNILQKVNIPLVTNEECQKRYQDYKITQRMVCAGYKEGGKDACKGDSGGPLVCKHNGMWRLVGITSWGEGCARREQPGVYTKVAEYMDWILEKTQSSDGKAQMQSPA
T3 sequence (P03952 20-638 limits assumed): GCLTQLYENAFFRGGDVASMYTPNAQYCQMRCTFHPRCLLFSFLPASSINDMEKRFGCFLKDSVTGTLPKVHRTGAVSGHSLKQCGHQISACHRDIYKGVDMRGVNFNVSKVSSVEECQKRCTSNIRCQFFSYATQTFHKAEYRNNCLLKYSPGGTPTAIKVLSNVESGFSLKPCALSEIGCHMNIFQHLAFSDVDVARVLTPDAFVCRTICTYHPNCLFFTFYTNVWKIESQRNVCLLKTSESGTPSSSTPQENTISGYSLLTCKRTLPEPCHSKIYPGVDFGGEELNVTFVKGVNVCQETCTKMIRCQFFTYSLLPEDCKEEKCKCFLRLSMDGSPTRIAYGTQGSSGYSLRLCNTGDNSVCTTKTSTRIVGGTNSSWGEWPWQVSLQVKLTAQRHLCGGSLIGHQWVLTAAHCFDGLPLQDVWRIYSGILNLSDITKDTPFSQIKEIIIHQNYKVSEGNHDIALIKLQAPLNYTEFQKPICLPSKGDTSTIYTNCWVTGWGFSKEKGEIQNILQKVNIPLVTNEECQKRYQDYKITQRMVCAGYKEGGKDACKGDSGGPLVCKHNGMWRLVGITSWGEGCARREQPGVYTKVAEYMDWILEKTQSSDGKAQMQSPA
rat plasma kallikrein, sequence (P14272 20-638 limits assumed): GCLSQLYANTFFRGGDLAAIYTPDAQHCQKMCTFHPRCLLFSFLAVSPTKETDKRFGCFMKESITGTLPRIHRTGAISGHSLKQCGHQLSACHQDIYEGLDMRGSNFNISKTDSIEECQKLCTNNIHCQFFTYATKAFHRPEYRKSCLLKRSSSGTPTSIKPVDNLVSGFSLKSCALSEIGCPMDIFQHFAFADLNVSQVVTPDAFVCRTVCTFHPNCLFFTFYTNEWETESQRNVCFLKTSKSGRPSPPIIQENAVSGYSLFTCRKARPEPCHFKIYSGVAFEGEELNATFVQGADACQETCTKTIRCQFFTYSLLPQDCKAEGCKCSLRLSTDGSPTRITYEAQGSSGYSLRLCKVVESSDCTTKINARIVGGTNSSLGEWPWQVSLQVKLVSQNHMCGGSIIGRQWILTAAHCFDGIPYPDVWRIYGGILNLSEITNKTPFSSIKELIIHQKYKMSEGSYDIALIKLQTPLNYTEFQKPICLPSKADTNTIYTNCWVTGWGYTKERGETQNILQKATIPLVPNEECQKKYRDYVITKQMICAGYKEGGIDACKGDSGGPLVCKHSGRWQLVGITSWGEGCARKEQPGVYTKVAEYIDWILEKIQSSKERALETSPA
rabbit plasma kallikrein (rabbit), sequence (chain, as listed by the source limits assumed): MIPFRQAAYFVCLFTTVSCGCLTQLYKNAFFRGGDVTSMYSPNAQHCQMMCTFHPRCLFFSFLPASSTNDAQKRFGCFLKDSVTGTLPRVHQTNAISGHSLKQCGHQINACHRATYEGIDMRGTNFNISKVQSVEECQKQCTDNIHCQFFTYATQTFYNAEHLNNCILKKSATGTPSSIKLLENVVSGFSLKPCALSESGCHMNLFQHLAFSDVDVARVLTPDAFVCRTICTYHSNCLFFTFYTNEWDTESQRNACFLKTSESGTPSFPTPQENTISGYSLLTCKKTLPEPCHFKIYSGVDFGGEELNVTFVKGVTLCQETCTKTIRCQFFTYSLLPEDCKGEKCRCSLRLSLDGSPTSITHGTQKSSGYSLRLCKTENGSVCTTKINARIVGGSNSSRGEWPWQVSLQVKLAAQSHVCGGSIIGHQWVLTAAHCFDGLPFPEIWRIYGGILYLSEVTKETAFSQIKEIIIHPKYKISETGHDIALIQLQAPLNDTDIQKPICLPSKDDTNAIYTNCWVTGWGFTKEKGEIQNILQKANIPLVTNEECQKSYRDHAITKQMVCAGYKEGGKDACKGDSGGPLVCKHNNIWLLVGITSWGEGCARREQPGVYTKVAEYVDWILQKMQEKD
cynomolgus monkey plasma kallikrein, sequence (P03952 other isoform, or with tags, fused parts or gaps limits assumed): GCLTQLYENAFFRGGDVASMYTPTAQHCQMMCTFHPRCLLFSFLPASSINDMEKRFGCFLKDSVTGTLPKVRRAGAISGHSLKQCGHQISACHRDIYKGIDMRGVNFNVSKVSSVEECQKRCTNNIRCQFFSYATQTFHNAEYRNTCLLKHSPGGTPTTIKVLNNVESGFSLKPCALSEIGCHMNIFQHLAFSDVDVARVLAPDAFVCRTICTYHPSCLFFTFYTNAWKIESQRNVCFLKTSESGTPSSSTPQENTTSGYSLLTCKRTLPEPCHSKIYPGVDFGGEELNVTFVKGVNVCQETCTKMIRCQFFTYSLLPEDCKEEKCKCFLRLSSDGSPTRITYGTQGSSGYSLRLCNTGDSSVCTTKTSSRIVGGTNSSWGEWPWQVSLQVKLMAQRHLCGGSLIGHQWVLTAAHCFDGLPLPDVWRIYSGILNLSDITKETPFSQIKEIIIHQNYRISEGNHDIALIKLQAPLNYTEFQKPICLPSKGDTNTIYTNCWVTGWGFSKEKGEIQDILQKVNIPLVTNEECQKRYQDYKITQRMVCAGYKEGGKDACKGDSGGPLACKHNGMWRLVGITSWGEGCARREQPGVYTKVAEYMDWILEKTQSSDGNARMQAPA

Binder | Kd (human plasma kallikrein [1]) [nM] | Kd [4] [nM] | koff [4] [s⁻¹] | kon [4] [M⁻¹ s⁻¹] | koff (human plasma kallikrein [5]) [s⁻¹] | kon (human plasma kallikrein [5]) [M⁻¹ s⁻¹] | Kd (human prekallikrein [7]) [nM] | koff (human prekallikrein [7]) [s⁻¹] | kon (human prekallikrein [7]) [M⁻¹ s⁻¹] | Kd (human plasma kallikrein [8]) [nM] | koff (human plasma kallikrein [8]) [s⁻¹] | kon (human plasma kallikrein [8]) [M⁻¹ s⁻¹] | IC50 (read off the curve), lower panel (human plasma kallikrein [9]) [nM] | fold higher affinity for plasma kallikrein than prekallikrein (human plasma kallikrein [11]) [fold] | IC50 (read off the curve) (human plasma kallikrein [19]) [nM] | IC50 (read off the curve), lower panel, 10 nM pKal (human plasma kallikrein [22]) [M] | further results
B1 | 0.9 | 150 | 0.0277 | 184000 | 7.7e-05 | 86000 | 1300 | 0.025 | 19000 | 1.1 | 7.3e-05 | 69000 | ~20 | > 1000 |  |  | IC50, inhibition of pKal (1 nM) enzymatic activity on PFR-AMC [2]: 223 pM; IC50, inhibition of pKal (1 nM) enzymatic activity on PFR-AMC (human plasma kallikrein [3]): 290 pM; IC50, inhibition of pKal (1 nM) enzymatic activity on PFR-AMC (rabbit plasma kallikrein): 352 pM; IC50, inhibition of pKal (1 nM) enzymatic activity on PFR-AMC (rat plasma kallikrein): 167 pM; Kd (human prekallikrein [6]): 670 nM; koff (human prekallikrein [6]): 0.022 s⁻¹; kon (human prekallikrein [6]): 34000 M⁻¹ s⁻¹; IC50 (read off the curve), upper panel, 30 nM pKal, 600 nM HMWK (human plasma kallikrein [9]): ~20 nM; fold higher potency than DX-2930, HMWK functional assay (human plasma kallikrein [10]): ~10 fold
B2 | 1.2 |  |  |  |  |  |  |  |  |  |  |  | ~20 | > 1000 |  |  | Kd (human prekallikrein [12]): 670 nM; koff (human prekallikrein [12]): 0.023 s⁻¹; kon (human prekallikrein [12]): 34000 M⁻¹ s⁻¹; Kd (human prekallikrein [13]): 1300 nM; koff (human prekallikrein [13]): 0.024 s⁻¹; kon (human prekallikrein [13]): 19000 M⁻¹ s⁻¹; Kd [14]: 105 nM; koff [14]: 0.031 s⁻¹; kon [14]: 296000 M⁻¹ s⁻¹; Kd (human plasma kallikrein [15]): 2.2 nM; koff (human plasma kallikrein [16]): 0.000101 s⁻¹; kon (human plasma kallikrein [16]): 83000 M⁻¹ s⁻¹; koff (human plasma kallikrein [17]): 8.6e-05 s⁻¹; kon (human plasma kallikrein [17]): 39000 M⁻¹ s⁻¹
B3 |  | 193 | 0.167 | 866000 | 0.0061 | 26000 | 144000 | 0.05 | 600 | 18 | 0.00056 | 31000 | ~30 | > 1000 | ~0.2 | ~3e-09 | IC50, trypsin inhibition assay (0.25 nM trypsin, PFR-AMC), Data 1 [18]: 243 nM; IC50, trypsin inhibition assay (0.25 nM trypsin, PFR-AMC), Data 2 [18]: 376 nM; fold reduction in KD at pH 6 versus pH 7.4 (human plasma kallikrein [20]): > 10 fold; Kd (human plasma kallikrein [21]): 236 nM
B4 |  |  |  |  |  |  |  |  |  |  |  |  |  |  | ~1 | ~8e-09 | IC50 (read off the curve), upper panel, 1 nM pKal (human plasma kallikrein [22]): ~1e-09 M
B5 |  |  |  |  |  |  |  |  |  |  |  |  | ~20 |  |  |  | Kd [23]: 848 nM; koff [23]: 0.229 s⁻¹; kon [23]: 270000 M⁻¹ s⁻¹

Reference: US20240218079A1 (ASTRIA THERAPEUTICS, published 2024)
